system: Escherichia coli TOP10; test: shrunken log2 fold change of peptide-encoding DNA abundance (4.5 h post-induction vs induction); higher = less antimicrobial activity (less host growth inhibition); conditions: time post-induction: 4.5 h; library: site-saturation at positions 5, 18, 19, 20
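Also: peptides expressed intracellularly from a pBAD plasmid library in pooled LB shake-flask culture, induced with 0.3% L-arabinose, DNA abundance read by NGS, three biological replicates, DESeq2 with apeglm shrinkage.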

Sequence | shrunken log2 fold change
RRIRHRPPRLPRPRPRPKYEPRP | -0.255
RRIRQRPPRLPRPRPRPKFGPRP | 0.102
RRIRKRPPRLPRPRPRPHYCPRP | -0.00783
RRIRLRPPRLPRPRPRPKDPPRP | -0.221
RRIRIRPPRLPRPRPRPCAAPRP | -0.0041
RRIRVRPPRLPRPRPRPRRAPRP | 0.751
RRIRIRPPRLPRPRPRPPLTPRP | -0.0194
RRIRDRPPRLPRPRPRPYQLPRP | -0.0742
RRIRYRPPRLPRPRPRPYPGPRP | -0.379
RRIRMRPPRLPRPRPRPMTMPRP | 0.178
RRIRLRPPRLPRPRPRPDHQPRP | -0.118
RRIRVRPPRLPRPRPRPMNLPRP | -0.0749
RRIRRRPPRLPRPRPRPPREPRP | 1.11
RRIRTRPPRLPRPRPRPMGIPRP | 0.049
RRIRTRPPRLPRPRPRPAFTPRP | 0.0137
RRIRMRPPRLPRPRPRPLIEPRP | 1.14
RRIRYRPPRLPRPRPRPECQPRP | 0.0129
RRIRWRPPRLPRPRPRPDGIPRP | 0.151
RRIRLRPPRLPRPRPRPVYFPRP | -0.455
RRIRGRPPRLPRPRPRPCRWPRP | 0.611
RRIRERPPRLPRPRPRPHKCPRP | 0.0924
RRIRNRPPRLPRPRPRPIRQPRP | 0.0261

Sequence | shrunken log2 fold change
RRIRSRPPRLPRPRPRPCRGPRP | -0.128
RRIRGRPPRLPRPRPRPTCIPRP | 0.351
RRIRWRPPRLPRPRPRPTIDPRP | -0.0862
RRIRNRPPRLPRPRPRPLAEPRP | 0.108
RRIRWRPPRLPRPRPRPHWHPRP | -0.0347
RRIRCRPPRLPRPRPRPTGKPRP | 0.355
RRIRDRPPRLPRPRPRPRFAPRP | 0.327
RRIRNRPPRLPRPRPRPPGEPRP | 0.0757
RRIRCRPPRLPRPRPRPNALPRP | 0.0653
RRIRTRPPRLPRPRPRPRATPRP | 0.299
RRIRGRPPRLPRPRPRPGPGPRP | 1.65
RRIRYRPPRLPRPRPRPKKAPRP | -0.0344
RRIRWRPPRLPRPRPRPHPEPRP | 0.275
RRIRFRPPRLPRPRPRPFQKPRP | -0.00162
RRIRDRPPRLPRPRPRPLWLPRP | 0.399
RRIRIRPPRLPRPRPRPSRQPRP | -0.747
RRIRCRPPRLPRPRPRPDATPRP | 1.31
RRIRIRPPRLPRPRPRPRKRPRP | 0.178
RRIRSRPPRLPRPRPRPSTIPRP | -0.482
RRIRFRPPRLPRPRPRPLVQPRP | -0.052
RRIRVRPPRLPRPRPRPPFTPRP | 0.955
RRIRRRPPRLPRPRPRPKFWPRP | 0.278

Sequence | shrunken log2 fold change
RRIRYRPPRLPRPRPRPCQNPRP | 0.0275
RRIRHRPPRLPRPRPRPVFFPRP | -0.0644
RRIRGRPPRLPRPRPRPCNDPRP | 0.376
RRIRVRPPRLPRPRPRPIPLPRP | -0.107
RRIRIRPPRLPRPRPRPIAHPRP | -0.358
RRIRFRPPRLPRPRPRPGTAPRP | 0.0678
RRIRQRPPRLPRPRPRPHETPRP | -0.0223
RRIRPRPPRLPRPRPRPYNDPRP | -0.723
RRIRMRPPRLPRPRPRPWCPPRP | -0.101
RRIRERPPRLPRPRPRPCSHPRP | -0.0193
RRIRSRPPRLPRPRPRPVADPRP | 0.0874
RRIRPRPPRLPRPRPRPMILPRP | -0.064
RRIRARPPRLPRPRPRPVHQPRP | 0.346
RRIRTRPPRLPRPRPRPEWNPRP | -0.05
RRIRCRPPRLPRPRPRPMQWPRP | 0.226
RRIRGRPPRLPRPRPRPVQLPRP | 0.0748
RRIRPRPPRLPRPRPRPTNVPRP | -0.0325
RRIRPRPPRLPRPRPRPMYFPRP | -0.0431
RRIRKRPPRLPRPRPRPKRDPRP | 0.539
RRIRVRPPRLPRPRPRPVPFPRP | -0.115
RRIRGRPPRLPRPRPRPPDHPRP | 0.982
RRIRIRPPRLPRPRPRPKNDPRP | -0.867

Sequence | shrunken log2 fold change
RRIRDRPPRLPRPRPRPNADPRP | 0.018
RRIRCRPPRLPRPRPRPFTQPRP | -0.559
RRIRMRPPRLPRPRPRPWFTPRP | -0.263
RRIRDRPPRLPRPRPRPMKWPRP | 0.139
RRIRGRPPRLPRPRPRPDQHPRP | 0.271
RRIRWRPPRLPRPRPRPMCFPRP | 0.0876
RRIRPRPPRLPRPRPRPVIWPRP | -0.0495
RRIRIRPPRLPRPRPRPHMRPRP | 0.128
RRIRYRPPRLPRPRPRPIEYPRP | -0.0912
RRIRCRPPRLPRPRPRPDESPRP | 0.153
RRIRWRPPRLPRPRPRPNQGPRP | 0.0374
RRIRDRPPRLPRPRPRPKNQPRP | -0.076
RRIRHRPPRLPRPRPRPVDMPRP | -0.201
RRIRARPPRLPRPRPRPLSQPRP | 0.263
RRIRQRPPRLPRPRPRPSFQPRP | -0.467
RRIRFRPPRLPRPRPRPVSLPRP | -0.00718
RRIRQRPPRLPRPRPRPSVIPRP | -0.656
RRIRNRPPRLPRPRPRPHCHPRP | -0.398
RRIRIRPPRLPRPRPRPIWNPRP | -0.263
RRIRFRPPRLPRPRPRPTYVPRP | -0.137
RRIRMRPPRLPRPRPRPSPNPRP | 0.0416
RRIRWRPPRLPRPRPRPWHLPRP | -0.00636

Sequence | shrunken log2 fold change
RRIRQRPPRLPRPRPRPGDSPRP | -0.0573
RRIRCRPPRLPRPRPRPLIAPRP | -0.0852
RRIRTRPPRLPRPRPRPCSEPRP | -0.0314
RRIRERPPRLPRPRPRPIKQPRP | -0.00681
RRIRPRPPRLPRPRPRPNPQPRP | -0.0414
RRIRQRPPRLPRPRPRPSMYPRP | -1.39
RRIRQRPPRLPRPRPRPCNIPRP | -0.646
RRIRWRPPRLPRPRPRPKWKPRP | 0.401
RRIRNRPPRLPRPRPRPCQYPRP | -0.0135
RRIRHRPPRLPRPRPRPILLPRP | -0.211
RRIRNRPPRLPRPRPRPISCPRP | -0.205
RRIRCRPPRLPRPRPRPKEAPRP | 0.085
RRIRDRPPRLPRPRPRPCGEPRP | 0.488
RRIRPRPPRLPRPRPRPNRNPRP | -0.352
RRIRFRPPRLPRPRPRPEFVPRP | 0.0629
RRIRDRPPRLPRPRPRPHHAPRP | 0.00408
RRIRKRPPRLPRPRPRPENMPRP | 0.11
RRIRYRPPRLPRPRPRPCQMPRP | -0.255
RRIRHRPPRLPRPRPRPTMVPRP | -0.224
RRIRHRPPRLPRPRPRPDGPPRP | -0.0182
RRIRGRPPRLPRPRPRPNFCPRP | 0.362

— the supplement of paper PMC9112550, “Optimization of the antimicrobial peptide Bac7 by deep mutational scanning” (BMC Biology, 2022)
